Experimental data: PMC4676722 (PLoS Genetics, 2015)
Where no end group is shown, it is not given here. [ ]: non-standard residue; d: D form. pY = N[C@@H](Cc1ccc(OP(=O)(O)O)cc1)C(=O)O

Biological target: T1, recombinant ovine wild type SOCS2 (Suppressor of Cytokine Signaling 2) (sheep (ovine), UniProt A0ACI6S499 1-198)
T1 construct: also called rOvSOCS2 WT; SOCS2-WT
T1 sequence (looked up): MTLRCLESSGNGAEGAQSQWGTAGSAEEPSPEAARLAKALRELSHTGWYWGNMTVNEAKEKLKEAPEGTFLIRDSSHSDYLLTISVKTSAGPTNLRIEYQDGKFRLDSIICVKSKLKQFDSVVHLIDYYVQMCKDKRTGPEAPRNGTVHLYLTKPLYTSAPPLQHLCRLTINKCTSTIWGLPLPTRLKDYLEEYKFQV
Assay: SPR; BIAcore T200, single-cycle kinetics; biotinylated GHR pY-peptide immobilised on SA chip (75 RU), scramble peptide as reference; five injections of SOCS2 protein 100 nM-8.1 μM, 120 s each; 1:1 Langmuir fit; 25°C, HBS-EP buffer
Details: both partners purified

- koff: 0.0016 s⁻¹
- kon: 828 M⁻¹ s⁻¹
Binder: PVPD[pY]TSIHIV (also: biotinylated, site not given here) [phosphorylated peptide from the growth hormone receptor (pY595 GHR), biotinylated]
